Measurements as given in the nanobody polyreactivity screen of Harvey et al. (2022).

Assay: yeast display, Sf9 membrane polyspecificity reagent, FACS + sequencing; frameworks hold sequencing errors
Outline: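 Using colony PCR, genes from sorted yeast display clones were amplified, then sequenced on MiSeq at 2 × 250 and filtered by CDR length. The clones had been stained with 10% biotinylated, detergent-solubilized Sf9 membrane reagent for 1 hour at 4 °C and sorted by FACS into low and high (top ~1%) gates on anti-HA and streptavidin fluorescence. Polyreactivity labels come from the gate of origin.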

Sequence	polyreactivity (PSR sort gate)
QVQLVESGGGLVQAGGSLRLSCAASGITFYRYALGWYRQAPGKEREFVAAISRSGVSTYYADSVKGRFTISRDNAKNTVYLQMNSLKPEDTAVYYCNKVYYPGFGYEGDYWGQGTQVTVSS	high polyreactivity
QVQLVESGGGLFQAGGSLRLSCAASGRISYGNAMGWYRQAPGKEMELVAAISGSGGSKYYADSVKGRFTISRDNAKNTVYLQMNSLKPEDTAVYYCAADSRKRQGYGYWGQGTQVTVSS	low polyreactivity
QVQLVESRGGLVQAGGSLRLSCAASGSTFRRYAMGWYRQAPGKERELVAAITTRGGSTYYADSVKGRFTISRDNAKNTVYLQMNSLKPEDTAVYYCARDYSTYLRTAGDYWGQGTQVTVSS	low polyreactivity
QVQLVESGGGLVQAGGSLRLSCAASGRIFPPNAMGWYRQGPGKERELVAGITSSGDTTYYADSVKGRFTISRDHAKKTVNLQMHSLKPEDTAVNYCAKDDVYADDRSALFDYWGQGTQVTVSS	low polyreactivity
QVQHVESGGGLVQAGGSLRLSCAASGFIFARNAMGWYRQAPGKERELVAAITWSGGSTYADSVKGRFTISRDNAKNTVYLQMNSLKPEDTAVYYCAADSYPAYLGFVGFDYWGQGTQVTVSS	low polyreactivity
QVQLVESGGGLVQAGGSLRLSCAASGNIFSYYAMGWYRQATGIERELVAAISGRGTRTYYADSVKGRFSISRDNAMNTVYLQMNSLNPEDTAVYYCATEVRRLNEFDYWGQGTQVTVSS	high polyreactivity
QVQRVESGGGLVQAGGSLRLSCAASGFIFDDKAMGWYRQAPGKERELVAAITSGGGSTYYADSVKGRFTISRDNAKNTVYLQMNSLKPEDTAVYYCNAVPSQHDEFDYWGQGTQVTVSS	low polyreactivity
QVQLVESGGGLVQAGGSLRISCAASGRIFERNAMRWYRQAPGKERELVAAITYNGGRTYYADSVKGRFTISRDNAKITVYLQMNSLKPEDTAVYNCNAQSRVTRSSYRGSPRYDFWGQGTQVTVSS	high polyreactivity
QVQLVESGGGLVQAGGSLRLISAASGINFTGYAMGWYRQAPGKERELVAAISYSAASTYYADSVKGRFTISRDTAKNTVYLQMNSLKPEDTAVYYCAATAPSRSYPFRYYYWGQGTQVTVSS	high polyreactivity
QVQLVESGGGLVQAGGSLRLSCAASGMTFTYYAMGWYRQAPGKERELVAAISWSDGSTYYADSVKGRFTISRDNAKNTVYLQMNSLKPEDTAVYYCAARYGGAISQAKYYYWGQGTQVTVSS	high polyreactivity
QVQLVESRGGLVQAGGSLRLSCAASGRIFSWYSMGWYRQPPGTERELVAGISWIGGSTYYADSVKGRFTFSRDNAKNTVYLQMISLKPEDTAVYYCNAEYFGEYRDYGYWGQGTQVTVSS	low polyreactivity
QLHLQESGGLVQAGGLRLSCAASGSVSYQEAMGWYRQAPGKERELVATISFGANTNYADSVKGRFTISRDNAKNTVYLQMNSLKPEDTAVYYCAAESLFDDYYGYWGQGTQVTVSS	low polyreactivity
QVQLVESGGGLVQAGGSLRVSCAASVRTLFGNALGWYRQAPGKERELLAAISFSGGRTEYADSVKGRFTISRDNAMNTVYLQMNSLKPEDTAVYYCAARTYSAPRNRYYYWGQGTQVTVSS	high polyreactivity
QVQLVESGGGLVQAGGSLRLSCAASGRIFTWYAMGWYRQAPGKERELVAAISWSGGRTYYADSVKGRFTISRDNAKNTVYLQMNSLKPEDTAVYYCNAVPSVRWRYDYWGQGTQVTVSS	high polyreactivity
QVQLVESGGGLVQAGGSLRLSCAASGSTLYTYAMGWYRQAPGKERELVATISWSGSSTYYADSVKGRFTISRDNAKNTVYLQMNSLKPEHTAVYYCAAPYHYWYRLDYWGQGTQVTVSS	high polyreactivity
QVQLVESGGGLVQAGGSLRLSCAASGLTFNFYAKGWYRQAPGKEREFVAAISRSGGSTHYADSVKGRFTISRDYAKYTVYLQMYSLKPEDTAVYYCAADGGRKNYDYWGQGTQVTVSS	high polyreactivity
QVQLVESGGGLVQAGGSLRLSCAASGRILPYNVMGWYRQAPGKEWEFVAAITGSGGDTYYADSVKGRFTISRDTAKNTVYLQMNSLKPEDTAVYYCAAAPYIGGSFGQTPGSGYWGQGTQVTVSS	low polyreactivity
QVQLVESGGGLVQAGGSLRLSCAASGRIFRYNAMGWYRQAPGKEWELVAAIRFSGGSTYYADSVKGRFTLSRDNAKNTVYLHMNSLKPEDTAVYYCAKVYFRVQSGMDYWGQGTQVTVST	low polyreactivity
QVQLVESGGGLVQAGGSLRLSCAASGSIFSCYTMGWYRQAPGKERELVAASTTYADSVKGRFTISRDNAKNTVYLQMNSLKPEDTAVSYCATRHPARRDYWGQGTQVTVSS	low polyreactivity
QVQLVESGGGLVQAGGRLRLSCAASGFTFYYKAMGWYRQAPGKEWELVASITWSGGRTYYADSVKGRFTISRDNAKNTVYFQMNSLKPEDTAVYYCNAGYCIGLVAYGYWGQGTQVTVSS	low polyreactivity
QVQLVESGGGLVQAGGSLRLSCAASGSTFGYYAMGWYRQAPGKERELVARISGGTRTNYADSVKGRFTISRDNAKNTVYLQMNSLKPEDTAVYYCNAYYYIPFEGRGYSKMDYWGQGTQVTVSS	high polyreactivity
QVQLVESGGGLYQAGGSLRLSCAASGFIFDPYARGWYRQAPGKEMELVASITWYGGRTYYADSVKGRFTISRDNAKNTVYLQMNSLKPEDPAVYYCAARGYTVWDDYWGQGTQVTVSS	high polyreactivity

Sequence	polyreactivity (PSR sort gate)
QVQLVESGGGLVQAGASLRLSCAASGFILYYYAMGWYRQAPGKERELVAAISARGGSTYYADSVKGRFTISRDNAKNTVYLQMNSLKPVDTAVYYCKKAGGYTGYTRRYEYWGQGTQVTVSS	high polyreactivity
QVQLVESGGGLVQAGGRLRLSCAASGRIFYNYAMGWYRQAPGKERELVAAISGSGGSTYYADSVKGRFTISRDNAKNTVYLQMNSLKPEDTAVYYCSTSGPQYYSRNFDYWGQGTQVTVSS	low polyreactivity
PVQLVDSGGGLVQAGGSLRLSCGASGRTFRKYGIGWYRQAAGKERELVAGISRSGGTTYYADTVKGRFTISRDTAKNTVYLQMNSLKPEDTAVYYCAKRTGPSGEDYWGQGTQVTVSS	high polyreactivity
QDQLVESGGGLVQAGGSLRLSCAASGLTIYHYAMGWYRQAPGKERELVADISSGGSTSYADSVKGRFTISRDNAKNTVYLQMNSLKPEDTAVYYCAADYTWERYHRQIFRLDYWGQGTQVTVSS	low polyreactivity
QVQLVESGGGLVQAGGSLRLSCAASGRTFVYNAMGWYRQAPGIERELVAAITTSGASTYYADSVKGRFTISRDNAKNTVYLQMNSLKPEDTAVYDCNAYSRYSYGRTYGYWGQGTQVTVSS	high polyreactivity
QVQLVESGGGLVQAGGSLRLSCAAYGITLYKYAMGWYRQAPGKERELVASISRSGGSTYYADSVKGRFTISRDNAKNTVYLEMNSLKPEDTAVYYCAKAVWWSRPAQKSYLYYYWGHGTQVTVSS	high polyreactivity
QVQLVESGGGLVQAGGSLRLSCAASGSTFGYNAMAWYRQAPGKERELVAAISWSGGSTYYADSVKGRFTISRDNAKNTVYLQMNSLKPEDTAVYYCATPYVKWNDYWGQGTQVTVSS	low polyreactivity
HVQLVESGGGLVQAGGSLRLRSAASGRIFYYNAMGWYRQAPGKERELVASISWDASSTYYADSVKGLFTISRDNAKNTVYLQMNSLKPEDTAVYYCNKIHLYRQYDYWGQGTQVTVSS	low polyreactivity
QVQLVESGGGLVQAGGSLRLSCAASGLIIYRYGMGWYRQAPGKERELVAAISYSGSSSYYADSVKGRFTISRDNAKNTVYLQMNSLKPEDTAVYYCAARHGPRSEAMYYWGQGTQVTVSS	high polyreactivity
QVQLVESGGGLVQAGGSLRLSCAAYGINFYKYAMVWSRQAPGQERELVASITKSAGSTNYADSDKGRFTISRDNAMNTVYLQMNSLKPEDTAVYYCAARRFTFNLFDYWGQGTQVTVSS	high polyreactivity
QVQLVESGGGLVQASGSLRLSCAASGLTFYLNAMGWYRPEHGKERELVAGISYTGGSTYYADSVKGRFTISRDNAKNTVYLQMNSLKPEDTAVYSCARDNFYYGVWDYGYWGQGTQVTVSS	low polyreactivity
QVQLLESGGGLVQAGGSLRLSSASSSFIFYSNDMGSYRQAPGKERELVAAISRRCGSTYYADSVKGRFTISRDNAKNTVFLQMNSLKPEDTAVYYCAARVGSGFDSWGQGTQVTVSS	high polyreactivity
QVQLVESGGGLVQAGGSLRLSCAASGSIFDTYAMGWYRQAPGKERELVATITRSGARTYYADSVKGRFTISRDNAKITVYLQMNSLKTEDTAVYYCAALYYDDFGYEYDYWGQGTQVTVSS	low polyreactivity
QVQLVESGGGLVQAGGSLRLSCAASGFTFAYYAMGWYRQAPGKERELVADISSGGSTDYADSVKGRFTISRDNAKNTVYLQMNSLKPEDTAVYYCNAVVVRLWYDYDYWGQGTQVTVSS	low polyreactivity
QVQLVESGGGLVQAGGSLRLSCAASGRILASYAMGWYRQAPGKERELVAAIRYRGSTSYADSVKGRFTISRDNAKNTVYLQMNSLKPEDTAVYYCAAKWHVRGRGARYRYDYDYWGQGTQVTVSS	low polyreactivity
QVQLVESGGGLVQAGGSLRLSCAASGSIFEKYAMGWYRQAPGKERELVASISKRGGSTNYADSVKGRFTISRDNAKNTVYLQMNSLKPVDTAVYYCAAPANRWSTRWYYDGYDYWGQGTQVTVSS	high polyreactivity
QVHLVESGGGLVQAGGSLRLSCAASGNTFQRYTMGWYRQAPGKERELVAAITWSGGNTYYADSVKGRFTISRDNEKNTVYLQMNSLKPEDTAVYYCNADYPTTAYDYWGQGTQVTVSS	low polyreactivity
QVQLVESGGGLVQPGGSFHLSCAASGSIFVVYAMGWYRQAPVKERELVAAITSGGSTYYADSVKGRFTISRDNAKKTVYLQMNSLKPEDTAVYYCATTYRDGVYELTTFDYWGQGTQVTVSS	low polyreactivity
QVQLVESGGGLVQEGGSLRLSCAASGFIFRSYAMGWYRKAPGKERELVAAISSSGGSTYYADSVKGRFTISRDNAKNTVYLPMNSLKPEDTAVYYCAKGYQRGRDYWGQGTQVTVSS	high polyreactivity
QVQLVESGGGLVQAGGSLRLSCAASGRTFYGNAMGWYRQAPGKERELVAAISWSGCGTYYADSVKGRFTISRDNAKNTVYLQMNSLKPEDTAVYYCARTLFGRSANRYGYWGQGTQVTVSS	high polyreactivity
QVQLVESGGGLVQAGGSLRLSCAASGRIFQRYTMGWYRQAPGKEWEFVAAITYSGGSTHYADSVKGRFTISRDNAKNTVYLQMNSLKPEDTAVYYCATDYIRYRWYVFYGWLWRYDYWGQGTQVTVSS	low polyreactivity
